According to paper PMC9833669:

Target: recombinant extracellular domain of the human AXL protein (tyrosine protein kinase receptor UFO) (human) (UniProt P30530)
Assay: BLI

Q: How did the Kd turn out when “GST-VP1u^(1-227aa) (glutathione S-transferase fused to the B19V VP1 unique region) (from UniProt Q9PZT0 1-227) (domain or fragment)” was run?
A: The Kd was 103 nM.
